Experiments:
[1] = biological target: anti-DNP wild-type human monoclonal IgG1 (human); assay: native MS
[2] = biological target: anti-DNP IgG1-RGY (human IgG1 with E345R, E430G, S440Y) (human); assay: high-speed atomic force microscopy
[3] = biological target: human monoclonal IgG2 (human); assay: native MS
[4] = biological target: human monoclonal IgG4 (human); assay: native MS

| Substance | stoichiometry N (SpA-B per IgG) [1] | reduction of IgG1-RGY hexamers [2] [%] | stoichiometry N [3] [SpA per IgG] | stoichiometry N [4] [SpA per IgG] | stoichiometry N [1] [SpA per IgG] |
| --- | --- | --- | --- | --- | --- |
| SpA-B domain wild type (single B-domain of staphylococcal protein A) (domain or fragment) | 2 | 50 | – | – | – |
| staphylococcal protein A, soluble construct containing all five Ig-binding domains (domain or fragment) | – | – | 1 | 1 | 1 |
